Test results taken from PMC10539383, “Recognition and cleavage mechanism of intron-containing pre-tRNA by human TSEN endonuclease complex”.

Target: T1, TSEN2;TSEN34;TSEN15;TSEN54 (Homo sapiens;Homo sapiens;Homo …, UniProt Q8NCE0;Q9BSV6;Q8WW01;Q7Z6J9 1-465;1-310;1-171;1-526, |||)
T1 sequence 1: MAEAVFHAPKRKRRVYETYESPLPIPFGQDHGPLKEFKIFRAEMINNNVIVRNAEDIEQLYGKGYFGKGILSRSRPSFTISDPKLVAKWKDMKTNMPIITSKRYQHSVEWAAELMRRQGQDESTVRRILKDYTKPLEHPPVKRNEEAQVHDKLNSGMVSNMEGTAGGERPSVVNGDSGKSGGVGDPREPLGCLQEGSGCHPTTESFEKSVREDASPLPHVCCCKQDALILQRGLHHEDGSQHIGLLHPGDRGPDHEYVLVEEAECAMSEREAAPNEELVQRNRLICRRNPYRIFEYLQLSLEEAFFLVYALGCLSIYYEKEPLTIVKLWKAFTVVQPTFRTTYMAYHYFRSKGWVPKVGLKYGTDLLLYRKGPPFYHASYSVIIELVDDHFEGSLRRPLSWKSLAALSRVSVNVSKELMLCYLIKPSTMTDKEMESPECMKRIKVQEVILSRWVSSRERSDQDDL
T1 sequence 2: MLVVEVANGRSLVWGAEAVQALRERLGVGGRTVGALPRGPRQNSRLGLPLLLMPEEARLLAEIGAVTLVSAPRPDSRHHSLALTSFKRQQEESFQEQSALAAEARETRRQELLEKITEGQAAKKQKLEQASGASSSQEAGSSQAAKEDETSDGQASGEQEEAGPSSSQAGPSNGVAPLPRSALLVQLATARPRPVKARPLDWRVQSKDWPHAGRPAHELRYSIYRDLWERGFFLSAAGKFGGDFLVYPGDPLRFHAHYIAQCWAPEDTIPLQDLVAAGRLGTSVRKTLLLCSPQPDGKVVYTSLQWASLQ
T1 sequence 3: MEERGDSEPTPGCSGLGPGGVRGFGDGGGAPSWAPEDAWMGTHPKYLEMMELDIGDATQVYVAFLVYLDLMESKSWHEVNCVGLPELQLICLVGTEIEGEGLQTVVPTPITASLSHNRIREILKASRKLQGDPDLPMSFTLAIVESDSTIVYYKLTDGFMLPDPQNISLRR
T1 sequence 4: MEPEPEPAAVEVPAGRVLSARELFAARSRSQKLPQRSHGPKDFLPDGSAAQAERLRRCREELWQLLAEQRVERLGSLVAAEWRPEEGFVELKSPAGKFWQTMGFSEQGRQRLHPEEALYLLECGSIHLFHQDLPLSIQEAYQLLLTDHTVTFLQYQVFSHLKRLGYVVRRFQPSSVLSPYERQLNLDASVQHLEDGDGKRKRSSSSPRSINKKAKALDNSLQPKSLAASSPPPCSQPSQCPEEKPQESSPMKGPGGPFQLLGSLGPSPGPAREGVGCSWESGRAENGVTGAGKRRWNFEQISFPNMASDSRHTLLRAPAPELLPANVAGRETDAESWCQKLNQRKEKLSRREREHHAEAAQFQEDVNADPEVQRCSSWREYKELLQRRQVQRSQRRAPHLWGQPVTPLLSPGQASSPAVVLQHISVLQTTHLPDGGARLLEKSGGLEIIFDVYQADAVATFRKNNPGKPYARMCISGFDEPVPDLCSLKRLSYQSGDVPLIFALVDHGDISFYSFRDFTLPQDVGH
Assay: cryo-EM structure (3.2 A); wild-type active complex; Protein (EM) buffer: 20 mM HEPES pH 8.0, 150 mM NaCl, 1 mM MgCl2, 5 mM DTT; complex formation conditions and temperature not in the material
Conditions: protein: recombinant;recombinant;recombinant;recombinant; tags: none stated;none stated;N-terminal 6xHis;N-terminal GST removed by TEV; copies: 1;1;1;1; pre-tRNA fold, single strand with anticodon-intron stem and 3' bulge

B1: pre-tRNAArgTCT (structured_RNA)
RNA: GGGGGCUCUGUGGCGCAAUGGAUAGCGCAUUGGACUUCUAGUGACGAAUAGAGCAAUUCAAAGGUUGUGGGUUCGAAUCCCACCAGAGUCG
B1: binds.
